The record followed here is the Immune Epitope Database (IEDB).

Some results are limits rather than exact numbers.

In assay [1] the target is HLA-A*02:03. As to the kind of experiment: IEDB peptide-MHC binding, purified MHC/competitive/fluorescence; filed as Kd, often an IC50 or EC50 that approximates it; ≥ and ≤ were set here for values at or beyond the usual limits of such assays.
Assay [2] deals with HLA-A*02:11. Described as above.
Assay [3] addresses HLA-A*02:12. The description is as above. Conditions: source organism: Yersinia pestis Nepal516.
For assay [4], the target named is HLA-A*02:19. The assay is described as above.
Assay [5] addresses HLA-A*03:01. The description is as above. Conditions: source organism: Yersinia pestis Nepal516.
For another assay, the target named is HLA-A*26:01. The assay is described as above.
For assay [6], the target named is HLA-B*15:01. The description is as above. Conditions: source organism: Yersinia pestis Nepal516.
Assay [7] has as its target HLA-B*18:01. Described as above.
The target in another assay is HLA-B*27:03. Described as above.
The next assay concerns the target HLA-B*39:01. The assay is described as above.
A further assay concerns the target HLA-B*46:01. Described as above.
The next assay concerns the target HLA-B*51:01. The description is as above.
A further assay concerns the target HLA-B*57:01. The assay is described as above.
The target in another assay is HLA-A*24:02. As to the kind of experiment: IEDB peptide-MHC binding, purified MHC/competitive/fluorescence; ≥ and ≤ were set here for values at or beyond the usual limits of such assays.
In the next assay the target is HLA-B*08:01. The description is as above.
For assay [8], the target named is HLA-B*15:01. Described as above.
The target of assay [9] is HLA-A*02:03. As to the kind of experiment: IEDB peptide-MHC binding, purified MHC/direct/fluorescence; filed as Kd, often an IC50 or EC50 that approximates it; ≥ and ≤ were set here for values at or beyond the usual limits of such assays. To be noted: source organism: Zaire ebolavirus.
For assay [10], the target named is HLA-A*02:11. The assay is described as above. Conditions: source organism: Zaire ebolavirus.
Assay [11] addresses HLA-A*02:12. The description is as above. To be noted: source organism: Zaire ebolavirus.
Another assay has as its target HLA-A*02:16. Described as above. To be noted: source organism: Zaire ebolavirus.
Assay [12] has as its target HLA-A*02:19. The description is as above. Conditions: source organism: Zaire ebolavirus.
Assay [13] concerns the target HLA-A*03:01. The description is as above. Conditions: source organism: Zaire ebolavirus.
A further assay concerns the target HLA-A*24:03. Described as above. To be noted: source organism: Zaire ebolavirus.
The next assay deals with HLA-A*29:02. The assay is described as above. Conditions: source organism: Zaire ebolavirus.
For a further assay, the target named is HLA-A*68:02. The assay is described as above. To be noted: source organism: Zaire ebolavirus.
Assay [14] has as its target HLA-B*15:01. The assay is described as above. Conditions: source organism: Zaire ebolavirus.
Assay [15] has as its target HLA-A*02:01. As to the kind of experiment: IEDB peptide-MHC binding, purified MHC/competitive/fluorescence; filed as Kd, often an IC50 or EC50 that approximates it; ≥ and ≤ were set here for values at or beyond the usual limits of such assays.
For a further assay, the target named is HLA-A*69:01. The assay is described as above.
For another assay, the target named is HLA-B*15:17. Described as above. To be noted: source organism: Zaire ebolavirus.
A further assay addresses HLA-C*14:02. As to the kind of experiment: IEDB peptide-MHC binding, purified MHC/direct/fluorescence; filed as Kd, often an IC50 or EC50 that approximates it; ≥ and ≤ were set here for values at or beyond the usual limits of such assays. Conditions: source organism: Vibrio vulnificus YJ016.
A further assay concerns the target HLA-A*02:06. Kind of assay: IEDB peptide-MHC binding, purified MHC/competitive/fluorescence; filed as Kd, often an IC50 or EC50 that approximates it; ≥ and ≤ were set here for values at or beyond the usual limits of such assays.
For assay [16], the target named is HLA-A*02:01. Kind of assay: IEDB peptide-MHC binding, purified MHC/competitive/fluorescence; ≥ and ≤ were set here for values at or beyond the usual limits of such assays.
Assay [17] deals with HLA-B*18:01. Kind of assay: IEDB peptide-MHC binding, purified MHC/competitive/radioactivity; filed as Kd, often an IC50 or EC50 that approximates it; ≥ and ≤ were set here for values at or beyond the usual limits of such assays.
The next assay concerns the target HLA-B*40:01. Described as above.
The target of the next assay is HLA-B*40:02. The assay is described as above.
In the next assay the target is HLA-B*44:02. The assay is described as above.
The target in the next assay is HLA-B*44:03. The description is as above.
Another assay concerns the target HLA-B*45:01. The assay is described as above.
The mark [18] stands for this setting: source organism: Yersinia pestis Nepal516.
Setting [19] is: source organism: Zaire ebolavirus.
[20] abbreviates: source organism: Vibrio vulnificus YJ016.
Where [21] appears, read: source organism: Human immunodeficiency virus 1.
Where [22] appears, read: source organism: Mammarenavirus lassaense.
Where [23] appears, read: source organism: SARS coronavirus Tor2.
Setting [24] is: source organism: Mammarenavirus whitewaterense.
Where [25] appears, read: source organism: Sudan ebolavirus.

As usually defined, the Kd is the equilibrium constant for the complex coming apart. In the case of SMLCWLGMT, the Kd with HLA-A*02:03 [1] (setting [18]) was at least 20 µM; with HLA-A*02:11 [2] (setting [18]), 0.0512 µM; with HLA-A*02:12 [3], 0.577 µM; with HLA-A*02:19 [4] (setting [18]) it was at least 20 µM; in the assay with HLA-A*03:01 [5] it was at least 20 µM; in the assay with HLA-A*26:01 (setting [18]), at least 20 µM. Moreover, the Kd in the assay with HLA-B*15:01 [6], with HLA-B*18:01 [7] (setting [18]), with HLA-B*27:03 (setting [18]), in the assay with HLA-B*39:01 (setting [18]), in the assay with HLA-B*46:01 (setting [18]) and in the assay with HLA-B*51:01 (setting [18]) was at least 20 µM each time. For the same sequence, the Kd with HLA-B*57:01 (setting [18]) was at least 20 µM.
One may read the IC50 as the concentration needed to halve the response being measured. A high value points to weaker potency in that assay. With HQKKNEISF, the IC50 was at least 116 µM in the assay with HLA-A*24:02 (setting [19]), 42.2 µM with HLA-B*08:01 (setting [19]) and 6.66 µM with HLA-B*15:01 [8] (setting [19]). Also, the Kd with HLA-A*02:03 [9], with HLA-A*02:11 [10], with HLA-A*02:12 [11], with HLA-A*02:16, in the assay with HLA-A*02:19 [12] and with HLA-A*03:01 [13] was at least 20 µM in each case. Moreover, the Kd with HLA-A*24:03 was at least 20 µM; with HLA-A*29:02 it was at least 20 µM; with HLA-A*68:02, at least 20 µM; in the assay with HLA-B*15:01 [14], 0.233 µM; in the assay with HLA-A*02:01 [15] (setting [19]), at least 20 µM; with HLA-A*26:01 (setting [19]) it was at least 20 µM. Also, the Kd in the assay with HLA-A*69:01 (setting [19]), with HLA-B*15:17, with HLA-B*18:01 [7] (setting [19]), in the assay with HLA-B*27:03 (setting [19]), with HLA-B*39:01 (setting [19]) and with HLA-B*46:01 (setting [19]) was at least 20 µM throughout. In addition, the Kd with HLA-B*51:01 (setting [19]) and with HLA-B*57:01 (setting [19]) was at least 20 µM in each case.
In the case of RQIQGIAAF, the Kd with HLA-C*14:02 turned out to be 2.62 µM; with HLA-A*02:01 [15] (setting [20]), 1.65 µM; with HLA-A*02:06 (setting [20]) it was 0.0133 µM.
On to NFLIKFLLI, for which the IC50 with HLA-A*02:01 [16] (setting [19]) is at least 614 µM; with HLA-A*24:02 (setting [19]), 0.0094 µM; with HLA-B*08:01 (setting [19]) it was at least 1610 µM.
Turning to NTVATLYCV, the Kd with HLA-A*02:01 [15] (setting [21]) is 0.215 µM; with HLA-A*02:03 [1] (setting [21]), 0.0135 µM; in the assay with HLA-A*02:06 (setting [21]), at most 0.0001 µM; with HLA-A*02:11 [2] (setting [21]), 0.0007 µM; with HLA-A*02:19 [4] (setting [21]) it was 0.0107 µM; with HLA-A*69:01 (setting [21]), at most 0.001 µM.
For the sequence FDAATTGSL, the Kd with HLA-B*18:01 [17] (setting [22]) is at least 38.9 µM; with HLA-B*40:01 (setting [22]), 16.6 µM; with HLA-B*40:02 (setting [22]), 2.29 µM; with HLA-B*44:02 (setting [22]) it was at least 22.2 µM; with HLA-B*44:03 (setting [22]), at least 44.6 µM; in the assay with HLA-B*45:01 (setting [22]), 14.4 µM.
TEIEPKLDG: the Kd is at least 77.5 µM in the assay with HLA-B*18:01 [17] (setting [23]); at least 76.2 µM with HLA-B*40:01 (setting [23]); at least 74.8 µM in the assay with HLA-B*40:02 (setting [23]); 17.9 µM with HLA-B*44:02 (setting [23]); 13.4 µM with HLA-B*44:03 (setting [23]); at least 28.6 µM in the assay with HLA-B*45:01 (setting [23]).
For MMKDEPVVF, the IC50 with HLA-A*02:01 [16] (setting [19]) was at least 116 µM; with HLA-A*24:02 (setting [19]), 0.218 µM; with HLA-B*08:01 (setting [19]) it was at least 205 µM; with HLA-B*15:01 [8] (setting [19]) it was 8.81 µM.
For the sequence LEITDVTTL, the Kd is 0.462 µM in the assay with HLA-B*18:01 [17] (setting [24]); 0.127 µM in the assay with HLA-B*40:01 (setting [24]); 0.0801 µM with HLA-B*40:02 (setting [24]); 0.0257 µM with HLA-B*44:02 (setting [24]); 0.0618 µM with HLA-B*44:03 (setting [24]); at least 77.7 µM with HLA-B*45:01 (setting [24]).
SEAREHLKNG: the Kd with HLA-B*18:01 [17] (setting [23]) is at least 70.5 µM; with HLA-B*40:01 (setting [23]) it was at least 39.3 µM; in the assay with HLA-B*40:02 (setting [23]) it was 6.59 µM; with HLA-B*44:02 (setting [23]) it was at least 36.2 µM; in the assay with HLA-B*44:03 (setting [23]) it was at least 28.1 µM; in the assay with HLA-B*45:01 (setting [23]), 8.32 µM.
With HSQGREAAV, the IC50 was at least 254 µM with HLA-A*02:01 [16] (setting [19]) and at least 172 µM in the assay with HLA-B*08:01 (setting [19]).
Consider TVIYRGVNF, for which the IC50 is at least 790 µM with HLA-A*02:01 [16] (setting [25]), 3.58 µM with HLA-A*24:02 (setting [25]), at least 88 µM in the assay with HLA-B*08:01 (setting [25]) and 28.3 µM in the assay with HLA-B*15:01 [8] (setting [25]).
For KEQYCALSPG, the Kd is at least 70.5 µM in the assay with HLA-B*18:01 [17] (setting [23]); 4.67 µM in the assay with HLA-B*40:01 (setting [23]); 0.831 µM with HLA-B*40:02 (setting [23]); 2.61 µM with HLA-B*44:02 (setting [23]); 3.46 µM with HLA-B*44:03 (setting [23]); 0.259 µM with HLA-B*45:01 (setting [23]).
